According to US20060239990A1, “Protein Arginine N-Methyltransferase 2 (PRMT-2)” (priority 2003, published 2006):

B1: PRMT2(1-95&219-433): internal deletion of amino acid 96-218, deleting the AdoMet binding domain (protein)
chain: MATSGDCPRSESQGEEPAECSEAGLLQEGVQPEEFVAIADYAATDETQLSFLRGEKILILRQTTADWWWGERAGCCGYIPANHVGKHVDEYDPEDFEFMIESILYARDAWLKEDGVIWPTMAALHLVPCSADKDYRSKVLFWDNAYEFNLSALKSLAVKEFFSKPKYNHILKPEDCLSEPCTILQLDMRTVQISDLETLRGELRFDIRKAGTLHGFTAWFSVHFQSLQEGQPPQVLSTGPFHPTTHWKQTLFMMDDPVPVHTGDVVTGSVVLQRNPVWRRHMSVALSWAVTSRQDPTSQKVGEKVFPIWR
B2: PRMT4: protein methyltransferase CARM1 (PRMT4) (protein)
chain: AAAAAAVGPGAGGAGSAVPGGAGPCATVSVFPGARLLTIGDANGEIQRHAEQQALRLEVRAGPDSAGIALYSHEDVCVFKCSVSRETECSRVGKQSFIITLGCNSVLIQFATPNDFCSFYNILKTCRGHTLERSVFSERTEESSAVQYFQFYGYLSQQQNMMQDYVRTGTYQRAILQNHTDFKDKIVLDVGCGSGILSFFAAQAGARKIYAVEASTMAQHAEVLVKSNNLTDRIVVIPGKVEEVSLPEQVDIIISEPMGYMLFNERMLESYLHAKKYLKPSGNMFPTIGDVHLAPFTDEQLYMEQFTKANFWYQPSFHGVDLSALRGAAVDEYFRQPVVDTFDIRILMAKSVKYTVNFLEAKEGDLHRIEIPFKFHMLHSGLVHGLAFWFDVAFIGSIMTVWLSTAPTEPLTHWYQVRCLFQSPLFAKAGDTLSGTCLLIANKRQSYDISIVAQVDQTGSKSSNLLDLKNPFFRYTGTTPSPPPGSHYTSPSENMWNTGSTYNLSSGMAVAGMPTAYDLSSVIASGSSVGHNNLIPLANTGIVNHTHSRMGSIMSTGIVQGSSGAQGSGGGSTSAHYAVNSQFTMGGPAISMASPMSIPTNTMHYGS

What was measured:
RB = target: T1, RB (Homo sapiens, UniProt P06400); experiment: In vitro binding assay with GST-RB; details: S35-labeled in vitro translated protein
T1 construct: coding region of RB cDNA was subcloned into pGEX-6P (Amersham/Pharmacia) for generation of GST-RB; made in house
T1 sequence (P06400 1-928): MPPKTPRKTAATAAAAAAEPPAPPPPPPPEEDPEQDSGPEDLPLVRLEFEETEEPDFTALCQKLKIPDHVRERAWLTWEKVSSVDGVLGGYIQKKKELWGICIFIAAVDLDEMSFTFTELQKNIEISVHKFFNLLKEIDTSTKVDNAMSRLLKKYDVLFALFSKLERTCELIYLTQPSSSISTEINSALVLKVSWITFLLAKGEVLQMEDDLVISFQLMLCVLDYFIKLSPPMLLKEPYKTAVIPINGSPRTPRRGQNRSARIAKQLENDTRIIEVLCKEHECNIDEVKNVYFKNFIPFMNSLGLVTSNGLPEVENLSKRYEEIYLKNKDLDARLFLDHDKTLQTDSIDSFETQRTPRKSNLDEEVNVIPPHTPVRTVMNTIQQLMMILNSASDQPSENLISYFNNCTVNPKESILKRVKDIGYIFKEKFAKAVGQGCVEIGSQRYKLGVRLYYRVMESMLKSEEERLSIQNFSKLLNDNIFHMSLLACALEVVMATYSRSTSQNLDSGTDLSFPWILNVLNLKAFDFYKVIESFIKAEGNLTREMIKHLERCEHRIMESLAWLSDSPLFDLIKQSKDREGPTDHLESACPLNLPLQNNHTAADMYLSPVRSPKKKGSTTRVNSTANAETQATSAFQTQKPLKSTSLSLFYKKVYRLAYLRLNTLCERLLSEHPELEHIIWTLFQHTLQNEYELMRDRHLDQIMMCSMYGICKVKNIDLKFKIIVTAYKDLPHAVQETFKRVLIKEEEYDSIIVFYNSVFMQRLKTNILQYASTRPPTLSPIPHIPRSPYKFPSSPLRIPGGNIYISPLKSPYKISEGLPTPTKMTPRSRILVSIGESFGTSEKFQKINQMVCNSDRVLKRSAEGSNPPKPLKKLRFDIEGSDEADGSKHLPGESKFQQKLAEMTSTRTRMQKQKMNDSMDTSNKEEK
Method: The crude cell lysate of the GST-fusion proteins was prepared and purified according to the manufacture's protocol (Amersham/Pharmacia). [^35S]-methionine-labeled protein was produced by in vitro transcription/translation using the TNT T7-coupled reticulocyte lysate system (Promega). [^35S]-methionine-labeled protein and GST-fusion protein bound to glutathione sepharose 4B beads were incubated in 500 μl of HNE buffer (50 mM Hepes, pH 7.8, 150 mM NaCl, 1 mM EDTA, 1 mM DTT, 1% NP40, and 1× protease inhibitor mix (Complete: Roche)) at 4° C. for 1 hour. Beads were washed four times with HNE buffer, and then analyzed on an SDS-PAGE gradient gel (4-15%). For the detection of endogenous PRMT-2 interaction with RB, MEFs were lysed with WCL buffer (50 mM Hepes, pH 7.8, 400 mM NaCl, 2 mM EDTA, 1 mM DTT, 0.2% NP40, 10% Glycerol, 20 mM α-glycerophosphate, 5 mM NaF, 0.1 mM NaVO4, and 1× protease inhibitor mix). Then, 1 mg of whole cell extracts were incubated with HNE buffer without DTT and 3 μg of antibodies as indicated. The immune complexes were isolated using protein G beads, and washed four times with HNE buffer. The precipitated protein was boiled with SDS-loading buffer and resolved on SDS-PAGE. For immunoprecipitation of HA-tagged protein, transfected cells were lysed with RIPA buffer (phosphate buffer saline containing 1% NP40, 0.5% sodium deoxycholate, 0.1% SDS, and 1× Complete), and 100 μg of whole cell lysates were immunoprecipitated with anti-HA antibodies and washed in RIPA buffer. Western blot analysis was performed as described in Tanner et al. (1998). Circ Res, 82, 396-403.
To test whether PRMT family members interact with RB, S^35-labeled in vitro translated PRMT1, PRMT2, PRMT3, and PRMT4 (CARM1) were incubated with GST-RB fusion proteins or control GST, and co-precipitated labeled proteins were resolved by SDS-PAGE. […] An equal amount of GST-RB and GST were loaded in each lane, verified by Coomassie staining (FIG. 8B).

E2F1 = experiment: E2F reporter assay (GAL4-E2F1 activator, luciferase); format: cell-based; details: U2OS cells, in the presence of the E2F1 activator
Method: HeLa cells, U2OS cells, and Saos2 cells were seeded at a density of 5×10^4 per well in 24-well plates. Cells were transfected 24 hours later with the indicated plasmid and with 20 ng of pRL-TK (Promega) as an internal control to normalize transfection efficiency. The amount of CMV promoter in the transfection was kept constant using empty vector. Cells were harvested at 30 or 36 hour after transfection and luciferase activity was analyzed by Dual-Luciferase Reporter Assay System (Promega). Luciferase activity was measured as a ratio of Firefly to Renilla. To study endogenous E2F activity in MEFs, PRMT-2^+/+ or PRMT-2^−/− MEFs were seeded at a density of 3×10^5 per well in 6-well plates. Cells were transfected 24 hours later with 3 μg of E2F4B-Luc and 10 ng of pRL-TK plasmid. Cells were harvested at 36 hour after transfection and analyzed for luciferase activity as described above.

HIV-1 LTR = experiment: HIV-1 reporter transcription, transient co-transfection; format: cell-based, human; details: 293T cells, co-transfection
Method: Cell culture, transfection, and reporter gene assays. The E1A-transformed, human kidney cell line, 293, and NIH-3T3 cells were maintained in Dulbecco's Modified Eagle Medium (DMEM) supplemented with 10% fetal calf serum and penicillin-streptomycin at 37° C. in 5% carbon dioxide in tissue culture grade Petri dishes. PRMT-2−/− mouse embryo fibroblasts (MEFs) and wild type MEFs were prepared from day 13.5 embryos and maintained in DMEM supplemented with 10% fetal calf serum. MEFs at passage 4 were used in this experiment. Lipofectamine Plus™ reagent (Boehringer Mannheim) was used to transfect both 293 and NIH-3T3 cells according to directions from the manufacturer. […] TNF-α stimulation of cells was done using recombinant TNF-α (200 U/ml) for 12 hours. Transfected cells were harvested at 36 hours, and CAT activity was assayed on 10 to 100 μg of protein from whole cell extracts. CAT assays were performed essentially as described in Leung, K. & Nabel, G. J. Nature 333, 776-778 (1988). To analyze the κB-reporter activity in MEFs, cells were transfected with the reporter (2×kB-Luc) and PRL-TK vector (Promega) using FuGENE6 transfection reagent (Roche). Luciferase activity was analyzed by Dual-Luciferase Reporter Assay System (Promega).
To determine whether PRMT-1, 2 or 3 could affect NF-κB function, their potential to regulate effects on transcription of the human immunodeficiency virus type 1 (HIV-1) was examined. Transient co-transfections were performed using PRMT1, PRMT2 and PRMT3 expression plasmids with an HIV-1 reporter plasmid in the human renal epithelial cell line, 293T.
To determine its dependence on NF-κB, human immunodeficiency virus type 1 (HIV-1) reporter plasmids with wild-type (WT) or mutant (ΔκB) sites were co-transfected transiently with control or PRMT2 expression plasmids in the different cell lines. […] The KB effect was dose-dependent and was also observed with other inducers of NF-κB, including phorbol […] (PMA) (FIG. 2B, right panel).

Molecule | binding to RB (RB) | E2F1 activity (E2F1) | effect on transcription of the HIV-1 reporter plasmid (HIV-1 LTR)
B1 | did not bind GST-RB | failed to repress E2F1 activity | 
B2 | do not bind RB |  | failed to inhibit NF-κB transcription specifically
